Patent publication US7056679B2, “Target specific screening and its use for identifying target binders” (Antyra, Inc., priority 2001, dated 2006)

How the values were obtained:
DGI-2 = molecular target: T1, DGI-2 (Homo sapiens, UniProt Q15004); experiment: ELISA analysis of phage on DGI-2 polypeptide (specific binding); settings: for DGI-2 (OD): binding to DGI-2 polypeptide (specific binding), phage ELISA units read at 405 nm; for DGI-2/LDH (OD): ratio of specific binding to non-specific binding
T1 construct: encompassed the entire DGI-2 open reading frame (ORF); His-tag of vector pIVEX2.3-MCS (inferred from the vector and from the reverse primer lacking a stop codon); made in house; host or cells: cell-free in vitro translation (Rapid Translation System RTS, Roche; E. coli lysate)
T1 sequence (Q15004 1-111): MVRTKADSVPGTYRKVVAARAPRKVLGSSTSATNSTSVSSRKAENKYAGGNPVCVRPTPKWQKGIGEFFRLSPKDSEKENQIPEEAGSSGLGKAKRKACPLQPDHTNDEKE
Description: To verify that the selected target binders bound to DGI-2, Elisa assays were performed with recombinant DGI-2. DGI-2 was subcloned and expressed using conventional methods as described below.
Protein yields were satisfactory, but most of protein was found in inclusion bodies. Next, DGI-2 was expressed using an in vitro translation system (Rapid Translation System RTS 5000, Roche Diagnostics GmbH, Mannheim Germany). For this system, the DGI-2 ORF was cloned into the pIVEX2.3-MCS vector (Roche Diagnostics) using restriction sites Nde I and Hind III, which were added to DGI-2 by PCR. […] The primers used for the PCR amplification were as follows: […]
(§1) For analysis of individual target binders, colonies were picked and phage prepared as described above using helper phage, M13KO7. Ninety-six-well microtiter plates were coated with 500 ng/well of specific target protein, 500 ng/well lactate dehydrogenase (LDH) irrelevant or non-specific target, 500 ng/well of positive control antibody raised against ETAG, and negative control of non-fat milk powder-PBS 2% at 4° C. overnight. Plates were then blocked with 350 microliters/well PBS containing 2% non-fat milk for 1 hr at room temperature. One hundred microliters per well of phage from isolated clones were added and plates were incubated at room temperature for 2 hr after centrifuging samples for 20 minutes at 3500 rpm at 4° C. The phage solution was then removed, and the wells were washed three times with PBS at room temperature. Antibody raised against M13 conjugated to horseradish peroxidase (Pharmacia) was diluted 1:3000 in PBS-Tween and added to each well (100 μl/well). Incubation was for 1 hr at room temperature, followed by washing with PBS-(0.5%) Tween 3 times as described. Color was developed by addition of ABTS solution (100 μl/well; Boehringer, Indianapolis, Ind.). Plates were analyzed at 405 nm. A clone was considered “positive” if the A405 of the well was ≧2-fold over background.

[1] = system: lactate dehydrogenase (LDH); experiment: ELISA analysis of phage on LDH (irrelevant, non-specific target); assay type: binding; settings: peptide binding to LDH polypeptide (non-specific binding); phage ELISA units read at 405 nm
Description: as §1

E-tag antibody = experiment: ELISA analysis of phage on antibody raised against ETAG (positive control); settings: peptide binding to E-tag antibody; phage ELISA units read at 405 nm
Description: as §1

Substance: LHFGSVMGWRPPGSLWSRPFGQVHPRSWSGS (DGI-2-40F-3-D11; listed as Escherichia coli)
- DGI-2 (OD) (DGI-2): 3.8 OD
- DGI-2/LDH (OD) (DGI-2): 2.9
- LDH (OD) [1]: 1.3 OD
- ETAG (OD) (E-tag antibody): 10.5 OD

Substance: VSFAHDWGRWWYQWEVG (DGI-2-20R-4-G22; listed as Escherichia coli)
- DGI-2 (OD) (DGI-2): 7.9 OD
- DGI-2/LDH (OD) (DGI-2): 6.5
- LDH (OD) [1]: 1.2 OD
- ETAG (OD) (E-tag antibody): 12.9 OD

Substance: SLECWAMPGMVVRLVGCDGP (DGI-2-20R-4-H112; listed as Escherichia coli)
- DGI-2 (OD) (DGI-2): 6.6 OD
- DGI-2/LDH (OD) (DGI-2): 6.0
- LDH (OD) [1]: 1.1 OD
- ETAG (OD) (E-tag antibody): 12.3 OD

Substance: RSYPRLCKQKGGVIGRMLPG (DGI-2-20F-PP-B2; listed as Escherichia coli)
- DGI-2 (OD) (DGI-2): 3.3 OD
- DGI-2/LDH (OD) (DGI-2): 2.9
- LDH (OD) [1]: 1.1 OD
- ETAG (OD) (E-tag antibody): 35.9 OD

Substance: GNKCFPPHDLFWDPCDQLQS (DGI-2-20R-4-F6; listed as Escherichia coli)
- DGI-2 (OD) (DGI-2): 2.3 OD
- DGI-2/LDH (OD) (DGI-2): 2.3
- LDH (OD) [1]: 1.0 OD
- ETAG (OD) (E-tag antibody): 13.2 OD

Substance: VLGADAGMIWFMDGCGIRCR (DGI-2-20R-4-E6; listed as Escherichia coli)
- DGI-2 (OD) (DGI-2): 7.0 OD
- DGI-2/LDH (OD) (DGI-2): 7.0
- LDH (OD) [1]: 1.0 OD
- ETAG (OD) (E-tag antibody): 19.1 OD

Substance: CCAWNGVGVGGLGWRVVVGP (DGI-2-20F-PP-H4; listed as Escherichia coli)
- DGI-2 (OD) (DGI-2): 2.1 OD
- DGI-2/LDH (OD) (DGI-2): 2.2
- LDH (OD) [1]: 1.0 OD
- ETAG (OD) (E-tag antibody): 32.9 OD

Substance: FRVALLSVSAGPCEGSGNT (DGI-2-20F-PP-H7; listed as Escherichia coli)
- DGI-2 (OD) (DGI-2): 1.8 OD
- DGI-2/LDH (OD) (DGI-2): 2.1
- LDH (OD) [1]: 0.8 OD
- ETAG (OD) (E-tag antibody): 3.7 OD

Substance: TCWIHRGLNVVRYSVNFGVRDARLTTQGMAWFPPGCGQGCV (TCWHRGLNVVRYSVNFGVRDARLTTQGMAWFPPGCGQGCV; DGI-2-40F-4-E62; listed as Escherichia coli)
- DGI-2 (OD) (DGI-2): 4.6 OD
- DGI-2/LDH (OD) (DGI-2): 4.5
- LDH (OD) [1]: 1.0 OD
- ETAG (OD) (E-tag antibody): 14.8 OD

Substance: WRARSSGYLFALTPNFGVPHIPSSALRRMH.GLMARDLRPV [DGI-2-40F-3-C10]
- DGI-2 (OD) (DGI-2): 1.1 OD
- DGI-2/LDH (OD) (DGI-2): 1.3
- LDH (OD) [1]: 0.9 OD
- ETAG (OD) (E-tag antibody): 7.7 OD

Substance: RMYNCHYIERLYDWHAGRJLLQDPA (RMYNCHYIERLYDWHAGRILLQDPA; not fully specified; non-natural residue J; DGI-2-20C-4-E926; listed as Escherichia coli)
- DGI-2 (OD) (DGI-2): 2.9 OD
- DGI-2/LDH (OD) (DGI-2): 3.0
- LDH (OD) [1]: 1.0 OD
- ETAG (OD) (E-tag antibody): 17.4 OD

Substance: RRFVRCSVPVALRSAVPVSV (DGI-2-20F-PP-A10; listed as Escherichia coli)
- DGI-2 (OD) (DGI-2): 2.4 OD
- DGI-2/LDH (OD) (DGI-2): 2.4
- LDH (OD) [1]: 1.0 OD
- ETAG (OD) (E-tag antibody): 16.3 OD

Substance: LVIGQRSFLSACSLFDGFCV (DGI-2-20R-4-H814; listed as Escherichia coli)
- DGI-2 (OD) (DGI-2): 9.5 OD
- DGI-2/LDH (OD) (DGI-2): 9.0
- LDH (OD) [1]: 1.1 OD
- ETAG (OD) (E-tag antibody): 13.5 OD

Substance: GIMQVAWGWREMTRLWDLGMA (GIMQVAWGWREWRLWDLGMA; DGI-2-20R-3-C6; listed as Escherichia coli)
- DGI-2 (OD) (DGI-2): 6.0 OD
- DGI-2/LDH (OD) (DGI-2): 5.2
- LDH (OD) [1]: 1.1 OD
- ETAG (OD) (E-tag antibody): 20.3 OD

Substance: SYRNFAMQSSLQVRRGSVVEDGTCWWEGVRCYSG (DGI-2-40F-4-F6; listed as Escherichia coli)
- DGI-2 (OD) (DGI-2): 3.2 OD
- DGI-2/LDH (OD) (DGI-2): 3.2
- LDH (OD) [1]: 1.0 OD
- ETAG (OD) (E-tag antibody): 13.5 OD

Substance: HSGNRQSGSRRTHLLNIFCSSDTFVFPGWSAYLSRVCPGD (DGI-2-40F-3-B122; listed as Escherichia coli)
- DGI-2 (OD) (DGI-2): 1.7 OD
- DGI-2/LDH (OD) (DGI-2): 2.2
- LDH (OD) [1]: 0.8 OD
- ETAG (OD) (E-tag antibody): 11.0 OD

Substance: LPQSRWLSEAWASWVDGVVD (DGI-2-20F-4-F9; listed as Escherichia coli)
- DGI-2 (OD) (DGI-2): 5.6 OD
- DGI-2/LDH (OD) (DGI-2): 5.9
- LDH (OD) [1]: 1.0 OD
- ETAG (OD) (E-tag antibody): 19.6 OD

Substance: RDHRYVGWGRATFRHDQSVW (DGI-2-20F-PP-H1; listed as Escherichia coli)
- DGI-2 (OD) (DGI-2): 1.7 OD
- DGI-2/LDH (OD) (DGI-2): 1.4
- LDH (OD) [1]: 1.2 OD
- ETAG (OD) (E-tag antibody): 1.4 OD

Substance: VQSGRDLGGLLRGGTGTEASP (DGI-2-20F-PP-D3; listed as Escherichia coli)
- DGI-2 (OD) (DGI-2): 2.2 OD
- DGI-2/LDH (OD) (DGI-2): 2.4
- LDH (OD) [1]: 0.9 OD
- ETAG (OD) (E-tag antibody): 15.0 OD

Substance: DYKGRTMTSPIMSALPVYDRLHGIGSRGQNMD (DYKGRTMTSPIMSALPVYDRLHGAIGSRGQNMD; DGI-2-20C-3-B3; listed as Escherichia coli)
- DGI-2 (OD) (DGI-2): 0.8 OD
- DGI-2/LDH (OD) (DGI-2): 0.9
- LDH (OD) [1]: 0.9 OD
- ETAG (OD) (E-tag antibody): 7.7 OD

Substance: GAIRLSGAAWTASRTGGRAS (DGI-2-20F-PP-E7; listed as Escherichia coli)
- DGI-2 (OD) (DGI-2): 1.6 OD
- DGI-2/LDH (OD) (DGI-2): 1.8
- LDH (OD) [1]: 0.9 OD
- ETAG (OD) (E-tag antibody): 21.5 OD

Substance: DVGAVVRSGHCASRPGE*QVR (DVGAVVRSGHCASRPGEQVR; DGI-2-20F-PP-H9; listed as Escherichia coli)
- DGI-2 (OD) (DGI-2): 1.6 OD
- DGI-2/LDH (OD) (DGI-2): 1.5
- LDH (OD) [1]: 1.1 OD
- ETAG (OD) (E-tag antibody): 13.6 OD

Substance: PVYRVAMCRISVGCSAGAWF (DGI-2-20F-PP-C12; listed as Escherichia coli)
- DGI-2 (OD) (DGI-2): 2.5 OD
- DGI-2/LDH (OD) (DGI-2): 2.9
- LDH (OD) [1]: 0.9 OD
- ETAG (OD) (E-tag antibody): 36.4 OD

Substance: VWAAWVEGSLLSPRQEPVRD (DGI-2-20R-4-G4; listed as Escherichia coli)
- DGI-2 (OD) (DGI-2): 10.2 OD
- DGI-2/LDH (OD) (DGI-2): 9.8
- LDH (OD) [1]: 1.0 OD
- ETAG (OD) (E-tag antibody): 13.6 OD

Substance: SLSLYWDAQVGCEVFWGYCV (DGI-2-20R-3-C10; listed as Escherichia coli)
- DGI-2 (OD) (DGI-2): 2.2 OD
- DGI-2/LDH (OD) (DGI-2): 2.1
- LDH (OD) [1]: 1.0 OD
- ETAG (OD) (E-tag antibody): 14.7 OD

Substance: GSVLERGCLEFSGFCFSLGH (DGI-2-20F-3-C1; listed as Escherichia coli)
- DGI-2 (OD) (DGI-2): 3.4 OD
- DGI-2/LDH (OD) (DGI-2): 3.4
- LDH (OD) [1]: 1.0 OD
- ETAG (OD) (E-tag antibody): 14.0 OD

Substance: LGRTFVWGTCLHLSVSRFGH (DGI-2-20F-PP-C3; listed as Escherichia coli)
- DGI-2 (OD) (DGI-2): 5.3 OD
- DGI-2/LDH (OD) (DGI-2): 5.1
- LDH (OD) [1]: 1.0 OD
- ETAG (OD) (E-tag antibody): 39.9 OD

Substance: FRMWVQSCFWGQPGTGCGEG (DGI-2-20R-3-D2; listed as Escherichia coli)
- DGI-2 (OD) (DGI-2): 7.9 OD
- DGI-2/LDH (OD) (DGI-2): 7.5
- LDH (OD) [1]: 1.1 OD
- ETAG (OD) (E-tag antibody): 14.3 OD

Substance: LVIQCSASVVACDLYWNYVGCLAAG (DGI-2-20C-3-D12; listed as Escherichia coli)
- DGI-2 (OD) (DGI-2): 1.1 OD
- DGI-2/LDH (OD) (DGI-2): 1.1
- LDH (OD) [1]: 1.0 OD
- ETAG (OD) (E-tag antibody): 3.6 OD

Substance: LWRRWSEGQLLGDGELRGDG (DGI-2-20R-3-B52; listed as Escherichia coli)
- DGI-2 (OD) (DGI-2): 8.7 OD
- DGI-2/LDH (OD) (DGI-2): 8.4
- LDH (OD) [1]: 1.0 OD
- ETAG (OD) (E-tag antibody): 15.8 OD

Substance: RISVGQCGTSRCGGGRRGGG (DGI-2-20F-PP-D1; listed as Escherichia coli)
- DGI-2 (OD) (DGI-2): 2.0 OD
- DGI-2/LDH (OD) (DGI-2): 1.9
- LDH (OD) [1]: 1.1 OD
- ETAG (OD) (E-tag antibody): 3.0 OD
